Measurements published in patent publication US20250215100A1 (HARBOUR BIOMED SHANGHAI, published 2025).

B1: PR001306 (CDX-1140) (antibody, human IgG2, kappa, V domains shown)
VH: QVQLVESGGGVVQPGKSLRLSCAASGFTFSSNGIHWVRQAPGKGLEWVAVIWSDGSNKFYADSVKGRFTISRDNSKNTLYLQMNSLRAEDTAVYYCARASGSGSYYNFFDYWGQGTLVTVSS
VL: EIVMTQSPATLSVSPGERATLSCRASQSVRSNLAWYQQKPGQAPRLLIYGASTRATGIPARFSGSGSGTEFTLTINSLQSEDFAVYYCQQHNKWITFGQGTRLEIKR
notes: CD40 positive control antibody
B2: PR001304 (APX005M) (antibody, human IgG1, kappa)
heavy: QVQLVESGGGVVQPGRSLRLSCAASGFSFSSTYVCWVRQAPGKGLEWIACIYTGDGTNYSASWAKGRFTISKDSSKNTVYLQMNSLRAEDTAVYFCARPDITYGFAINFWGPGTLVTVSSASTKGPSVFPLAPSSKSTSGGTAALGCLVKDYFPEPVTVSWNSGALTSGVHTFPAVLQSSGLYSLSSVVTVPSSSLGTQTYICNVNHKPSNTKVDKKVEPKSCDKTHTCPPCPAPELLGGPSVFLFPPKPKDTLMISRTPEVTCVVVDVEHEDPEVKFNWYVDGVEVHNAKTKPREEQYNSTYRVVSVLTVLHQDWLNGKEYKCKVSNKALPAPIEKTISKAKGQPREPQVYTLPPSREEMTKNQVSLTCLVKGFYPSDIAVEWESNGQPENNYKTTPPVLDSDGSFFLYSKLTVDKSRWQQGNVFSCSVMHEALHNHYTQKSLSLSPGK
light: DIQMTQSPSSLSASVGDRVTIKCQASQSISSRLAWYQQKPGKPPKLLIYRASTLASGVPSRFSGSGSGTDFTLTISSLQPEDVATYYCQCTGYGISWPIGGGTKVEIKRTVAAPSVFIFPPSDEQLKSGTASVVCLLNNFYPREAKVQWKVDNALQSGNSQESVTEQDSKDSTYSLSSTLTLSKADYEKHKVYACEVTHQGLSSPVTKSFNRGEC
notes: as for B1
B3: PR003379 (antibody, human IgG2, kappa)
heavy: QVQLVQSGAEVKKPGASVKVSCKASGYTFAGYYMYWVRQAPGQGLEWMGWINPDSGAPTYAQKFQGRVTMTRDTSISTAYMELSRLRSDDTAVYYCAREKIYYGSGNYYPSFDYWGQGTLVTVSSASTKGPSVFPLAPCSRSTSESTAALGCLVKDYFPEPVTVSWNSGALTSGVHTFPAVLQSSGLYSLSSVVTVPSSNFGTQTYTCNVDHKPSNTKVDKTVERKCCVECPPCPAPPVAGPSVFLFPPKPKDTLMISRTPEVTCVVVDVSHEDPEVQFNWYVDGVEVHNAKTKPREEQFNSTFRVVSVLTVVHQDWLNGKEYKCKVSNKGLPAPIEKTISKTKGQPREPQVYTLPPSREEMTKNQVSLTCLVKGFYPSDIAVEWESNGQPENNYKTTPPMLDSDGSFFLYSKLTVDKSRWQQGNVFSCSVMHEALHNHYTQKSLSLSPGK
light: DIQLTQSPSFLSASVGDRVTITCRASQGISSYLAWYQQKPGKAPKLLIYAASTLQSGVPSRFSGSGSGTEFTLTISSLQPEDFATYYCQQLNSYPWTFGQGTKVEIKRTVAAPSVFIFPPSDEQLKSGTASVVCLLNNFYPREAKVQWKVDNALQSGNSQESVTEQDSKDSTYSLSSTLTLSKADYEKHKVYACEVTHQGLSSPVTKSFNRGEC
notes: Fully human recombinant IgG2, kappa light chain; from Harbour H2L2 mice; also called 18C4A12-1B1 (clone No.)

How the values were obtained:
[1] = biological target: T1, cynomolgus monkey CD40 on cells (cynomolgus monkey, UniProt G7PG38 21-278); test: FACS, CHO-K1/cyCD40 cells
T1 construct: also called cyCD40; CHO-K1/cyCD40
Outline: (§1)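 Antibody binding to CHO-K1/hCD40, CHO-K1/cyCD40 or Raji cells, 8 concentrations, 5-fold dilutions from 300 nM final, 1 h at 4° C. in the dark. Detection with Alexa Fluor 488 anti-human IgG, flow cytometry; EC50 from four-parameter nonlinear fit; hIgG negative control.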

[2] = biological target: T2, human CD40 on cells (human, UniProt P25942 21-277); test: cell-based or functional assay
[3] = biological target: T2, human CD40 on cells; test: FACS, CHO-K1/hCD40 cells
Outline: as §1

[4] = biological target: T2, human CD40 on cells; test: FACS, Raji cells
Outline: as §1

[5] = biological target: T3, human CD40 protein (human, UniProt P25942 21-193, limits assumed); test: BLI (Octet Red 96e), antibody captured on AHC sensor, human CD40 protein in solution, 1:1 global fit
T3 construct: the construct is not described
Procedure: To detect the affinity of CD40 antibodies for antigens such as human CD40 protein, the binding kinetics between antigen and antibody was analyzed using an Octet Red 96e (Fortebio) molecular interaction analyzer by biolayer interferometry (BLI) technique.
For determining the affinity of antibodies for antigens, the rotary speed of the sensor was set at 1000 rpm. […] The AHC sensors were finally regenerated by immersing in a 10 mM glycine-hydrochloric acid solution with pH 1.5 to elute the protein bound to the sensors.
For data analysis using Octet Data Analysis software (Fortebio, version 11.0), 0 nM well was used as the reference well, reference subtraction was performed, “1:1 Global fitting” method was selected for data fitting, the kinetic parameters of the binding of the antigen to the CD40 antibodies were calculated, and the kon (1/Ms) value, kdis (1/s) value and KD (M) value were obtained.

[6] = biological target: T2, human CD40 on cells; test: FACS, inhibition of human CD40L-his binding to CHO-K1/hCD40 cells
Procedure: To detect the effect of CD40 antibodies on the binding of CD40 to CD40L, CHO-K1/hCD40 cells were plated at 2×10⁵/well or 100 μL/well into a 96-well plate (Corning, #3799) and centrifuged, and the supernatant was taken and the dilution solution of the antigen binding protein to be tested was added at 50 μL/well with an initial concentration of 500 nM, 5-fold concentration dilution and a total of 8 concentrations. 20 μg/mL of human CD40L-his protein (Sino biological, #10239-H08E) was added at 50 μL/well, the cells were incubated at 4° C. for 1 hour and then washed 3 times with FACS buffer (1×PBS with 2% FBS). 1:400 diluted anti-histidine tag secondary antibody (GenScript, #A01800) was added, and the cells were incubated at 4° C. for 1 hour, then washed 2 times with FACS buffer, and resuspended in pre-chilled PBS. The fluorescence signal values were read using a BD FACS CANTOII flow cytometer or ACEA NovoCyte flow cytometer, and the data were processed and analyzed using FlowJo v10 software (FlowJo, LLC).
Data processing and graphical analysis were performed using GraphPad Prism 8 software. The curve of the antibody concentration-dependent inhibition rate and parameters, such as IC50 value were obtained by four-parameter nonlinear fitting.

T1 sequence (G7PG38 entry or part of it limits assumed): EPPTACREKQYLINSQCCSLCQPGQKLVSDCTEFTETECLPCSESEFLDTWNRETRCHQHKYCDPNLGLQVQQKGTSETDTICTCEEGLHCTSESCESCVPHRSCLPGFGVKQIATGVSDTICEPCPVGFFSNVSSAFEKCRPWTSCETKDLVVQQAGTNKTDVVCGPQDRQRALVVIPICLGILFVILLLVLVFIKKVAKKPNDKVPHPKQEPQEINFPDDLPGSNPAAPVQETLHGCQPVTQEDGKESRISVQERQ
T3 sequence (P25942 21-193 limits assumed): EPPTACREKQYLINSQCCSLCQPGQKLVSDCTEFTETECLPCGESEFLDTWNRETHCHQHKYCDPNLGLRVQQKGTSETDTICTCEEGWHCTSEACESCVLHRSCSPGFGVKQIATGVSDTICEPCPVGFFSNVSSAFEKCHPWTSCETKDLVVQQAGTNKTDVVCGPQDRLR
T2 sequence (P25942 21-277): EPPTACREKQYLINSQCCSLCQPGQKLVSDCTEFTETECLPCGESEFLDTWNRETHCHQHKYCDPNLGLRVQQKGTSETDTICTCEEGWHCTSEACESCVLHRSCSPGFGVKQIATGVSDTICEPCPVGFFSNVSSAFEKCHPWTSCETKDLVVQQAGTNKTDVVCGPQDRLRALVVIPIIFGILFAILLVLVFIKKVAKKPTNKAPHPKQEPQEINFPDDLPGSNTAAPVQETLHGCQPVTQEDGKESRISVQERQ

| Binder | EC50 [1] [pM] | Maximum MFI [1] [MFI] | EC50 (nM), crosslinked (CHO-K1/hCD32B), HEK293-hCD40-NFkB reporter [2] [nM] | EC50 (nM), uncrosslinked, HEK293-hCD40-NFkB reporter [2] [nM] | Maximum RLU, crosslinked (CHO-K1/hCD32B), HEK293-hCD40-NFkB reporter [2] [RLU] | Maximum RLU, uncrosslinked, HEK293-hCD40-NFkB reporter [2] [RLU] | RLU fold (crosslinked/uncrosslinked) [2] [fold] | EC50 [3] [pM] | Maximum MFI [3] [MFI] | EC50 [4] [pM] | Maximum MFI [4] [MFI] | Kd [5] [pM] | koff [5] [s⁻¹] | kon [5] [M⁻¹ s⁻¹] | IC50 [6] [pM] | Maximum inhibition rate (%) [6] [%] |
| --- | --- | --- | --- | --- | --- | --- | --- | --- | --- | --- | --- | --- | --- | --- | --- | --- |
| B1 | 5540 | 39700 | 0.0506 | 0.0371 | 22600 | 20000 | 1.13 | 12200 | 29200 | 28 | 614 | 525 | 0.00057 | 1.09e+06 | 4400 | 24 |
| B2 | – | – | 0.042 | 0.355 | 23200 | 11900 | 1.95 | – | – | – | – | 7140 | 0.00264 | 369000 | 10000 | 26 |
| B3 | 3880 | 117000 | 0.178 | 0.369 | 19700 | 8250 | 2.38 | 6340 | 81600 | 69.9 | 3700 | 138 | 0.000144 | 1.04e+06 | 17000 | 41.9 |
